# Where “and” joins values, the source holds several entries; their conditions need not be identical. Equal values may be shown once.
# B1: Ruminococcus xylose isomerase: native xylose isomerase from Ruminococcus flavefaciens strain 17, SEQ ID NO: 31 (protein, listed as Ruminococcus flavefaciens)
# chain: MEFFSNIGKIQYQGPKSTDPLSFKYYNPEEVINGKTMREHLKFALSWWHTMGGDGTDMFGCGTTDKTWGQSDPAARAKAKVDAAFEIMDKLSIDYYCFHDRDLSPEYGSLKATNDQLDIVTDYIKEKQGDKFKCLWGTAKCFDHPRFMHGAGTSPSADVFAFSAAQIKKALESTVKLGGNGYVFWGGREGYETLLNTNMGLELDNMARLMKMAVEYGRSIGFKGDFYIEPKPKEPTKHQYDFDTATVLGFLRKYGLDKDFKMNIEANHATLAQHTFQHELRVARDNGVFGSIDANQGDVLLGWDTDQFPTNIYDTTMCMYEVIKAGGFTNGGLNFDAKARRGSFTPEDIFYSYIAGMDAFALGFRAALKLIEDGRIDKFVADRYASWNTGIGADIIAGKADFASLEKYALEKGEVTASLSSGRQEMLESIVNNVLFSL
# B2: PAO1 EDD protein: phosphogluconate dehydratase (edd) of Pseudomonas aeruginosa PAO1, SEQ ID NO: 70 (protein, listed as Pseudomonas aeruginosa)
# chain: MHPRVLEVTRRIQARSAATRQRYLEMVRAAASKGPHRGTLPCGNLAHGVAACGESDKQTLRLMNQANVAIVSAYNDMLSAHQPFERFPGLIKQALHEIGSVGQFAGGVPAMCDGVTQGEPGMELSLASRDVIAMSTAIALSHNMFDAALCLGVCDKIVPGLLIGSLRFGHLPTVFVPAGPMPTGISNKEKAAVRQLFAEGKATREELLASEMASYHAPGTCTFYGTANTNQLLVEVMGLHLPGASFVNPNTPLRDELTREAARQASRLTPENGNYVPMAEIVDEKAIVNSVVALLATGGSTNHTLHLLAIAQAAGIQLTWQDMSELSHVVPTLARIYPNGQADINHFQAAGGMSFLIRQLLDGGLLHEDVQTVAGPGLRRYTREPFLEDGRLVWREGPERSLDEAILRPLDKPFSAEGGLRLMEGNLGRGVMKVSAVAPEHQVVEAPVRIFHDQASLAAAFKAGELERDLVAVVRFQGPRANGMPELHKLTPFLGVLQDRGFKVALVTDGRMSGASGKVPAAIHVSPEAIAGGPLARLRDGDRVRVDGVNGELRVLVDDAEWQARSLEPAPQDGNLGCGRELFAFMRNAMSSAEEGACSFTESLNGWR
# B3: E. coli EDA protein: 2-keto-3-deoxygluconate-6-phosphate aldolase (eda) isolated from E. coli genomic DNA (protein, UniProt P0A955 1-213, looked up)
# KHG/KDPG aldolase: MKNWKTSAESILTTGPVVPVIVVKKLEHAVPMAKALVAGGVRVLEVTLRTECAVDAIRAIAKEVPEAIVGAGTVLNPQQLAEVTEAGAQFAISPGLTEPLLKAATEGTIPLIPGISTVSELMLGMDYGLKEFKFFPAEANGGVKALQAIAGPFSQVRFCPTGGISPANYRDYLALKSVLCIGGSWLVPADALEAGDYDRITKLAREAVEGAKL
# What was measured:
# [1] = system: engineered yeast (S. cerevisiae); assay: Heterologous xylose isomerase expression in yeast (active yes/no); format: cell-based; conditions: xylose isomerase of donor organism expressed in engineered yeast (S. cerevisiae)
# [2] = Xylose isomerase activity/kinetic assay on soluble whole cell extract (sorbitol dehydrogenase coupled, NADH, A340); format: biochemical; conditions: xylose isomerase expressed in S. cerevisiae, total soluble crude extract; xylose concentrations between 40 and 500 nM (so in the source); Michaelis Mentin plots
# Method: […] Louis, Mo.), and about 2 U sorbitol dehydrogenase (Roche) at about 30° C. […] A Beckman DU-800 was utilized with an Enzyme Mechanism software package (Beckman Coulter, Inc.), and the change in the A340 was monitored for 2-3 minutes.
# […] Louis, Mo.), and 2 U Sorbitol Dehydrogenase (SDH) (Roche, Indianapolis, Ind.) at about 30° C. […] A Beckman DU-800 spectrophotometer was utilized with an Enzyme Mechanism software package (Beckman Coulter, Inc, Brea, Calif.), and the change in the A340 was monitored for 2-3 minutes.
# […] Louis, Mo.), and 2 U sorbitol dehydrogenase (SDH) (Roche, Indianapolis, Ind.) at about 30° C. […] A Beckman DU-800 spectrophotometer was utilized with an Enzyme Mechanism software package (Beckman Coulter, Inc, Brea, Calif.), and the change in the A340 was monitored for 2-3 minutes.
# Approximately 20 μg of soluble whole cell extract from each transformed cell line was prepared using Y-PER plus reagent as described above was incubated in a solution containing about 100 mM Tris, pH 7.5, 10 mM MgCl ? 2, 0.15 mM NADH (Sigma, St. Louis, Mo.), and 2 U Sorbitol Dehydrogenase (SDH) (Roche, Indianapolis, Ind.) at about 30° C. […] A Beckman DU-800 spectrophotometer was utilized with an Enzyme Mechanism software package (Beckman Coulter, Inc, Brea, Calif.), and the change in the A340 was monitored for 2-3 minutes.
# [3] = Industrial yeast strain: serum bottle (anaerobic) growth and ethanol production on xylose; format: cell-based, Saccharomyces cerevisiae; conditions: sealed serum bottles, versus vector only control
# Method: The serum bottles were sealed with a butyl rubber stopper to prevent air exchange. As a result, the cultures became anaerobic once the available oxygen in the serum bottle was utilized. In general, anaerobiosis (e.g., the onset of anaerobic conditions) occurred a few hours after the culture was inoculated. Xylose utilization, ethanol production and cell growth were measured every twenty four hours.
# [4] = In vivo evaluation of xylose isomerase constructs in C5 strain: xylose fermentation, aerobic then anaerobic; format: cell-based, Saccharomyces cerevisiae; conditions: harvest at 372 hours
# Excerpt: The engineered strain was designed to include the following genetic modifications: the native Pho13 gene (alkaline phosphatase specific for p-nitrophenyl phosphate) was disrupted by inserting a construct containing the native TLK1 gene (Transketolase-1); the native aldose reductase gene (Gre3) was disrupted by inserting a construct containing the native high-affinity glucose transporter-7 gene (HXT7); the native glucose-repressible alcohol dehydrogenase II gene (adh2) was disrupted by inserting a construct containing the native xylulokinase gene (XYLK); and the native orotidine-5′ phosphate decarboxylase gene (ura3) was disrupted by inserting a construct containing the native transaldolase 1 gene […]. The resulting strain had the following genotype: pho13::TKL1, gre3::HXT7, adh2::XYLK, ura3::TAL1.
# The C5 strain was transformed using standard protocols with either p426GPD (as a control) or the chimeric variants XI-R, XI-Rp5, XI-Rp10, or XI-Rp15. The transformed cells were grown on SC-glucose minus uracil initially and then passaged onto SC-xylose minus uracil. Cultures of each of the above constructs were made in SC-xylose minus uracil—and grown for one week. The cultures were grown aerobically at 30° C. with 250 rpm agitation, 1 vvm sparge of process air, 21% O2. The pH was controlled at about 5.0 with 1N NaOH. […] At 24 hours elapsed fermentation time the fermentation was switched to anaerobic conditions. […] Oxygen was purged with 100% N2 sparge at 1 vvm until percent O2 was below 1%. Aeration was then set at 0.25 vvm 100% N2.
# The final sample also measured biomass by dry cell weight.
# [5] = Industrial yeast strain BF903 evaluation: aerobic growth and xylose consumption in YP-xylose; format: cell-based, Saccharomyces cerevisiae; conditions: commercial yeast strain BF903, YP-xylose with G418, aerobic, 30° C., 7 days
# Method: A commercially available industrial diploid strain of Saccharomyces cerevisiae (strain BF903; “Stillspirits” triple distilled yeast, Brewcraft, Albany, New Zealand; available at Hydrobrew, Oceanside, Calif.) was obtained and was made competent for transformation using known yeast cell transformation procedures. […] Transformed yeast containing each construct were grown overnight aerobically in a 15 ml culture tube on YPD media containing 2% glucose. After about 24 hours, about 25 ml of YP media containing 2% glucose and 100 μg/ml G418 was seeded with the cells at an initial OD600 of 0.5 in a 250 ml Erlenmeyer flask and grown aerobically at 30° C. The cultures were then passaged once every 7 days into fresh media, also at an initial OD600 of 0.5.
# Measurements were taken of the cell optical density (OD600) to assess cell density and plated onto YPD with 100 μg/ml G418 to ensure that the plasmid was stable. […] The strains were then grown overnight in YPD (with 100 μg/ml G418) and used to inoculate about 50 ml YP-xylose (with 100 μg/ml G418) into disposable 250 ml Erlenmeyer flasks with vented caps at an initial OD600 of about 1. The cultures were allowed to grow aerobically at 30° C. at 200 rpm for 7 days.
# [6] = Anti-His western blot of EDD and EDA variants expressed in S. cerevisiae (soluble/insoluble fractions); design: species or system Saccharomyces cerevisiae; conditions: C-terminal HIS tag; total crude extract and solubilized extract
# Method: Transformation of the p426GPD plasmids containing an edd or an eda variant gene into yeast strain BY4742 was accomplished using the Zymo Research frozen-EZ yeast transformation II kit according to the manufacturer's protocol. The transformed BY4742 cells were selected by growth on a synthetic dextrose medium (SD) (0.67% yeast nitrogen base-2% dextrose) containing complete amino acids minus uracil (Krackeler Scientific Inc). Plates were incubated at about 30° C. for about 48 hours. Transformant colonies for each edd and eda variant were inoculated onto 5 ml of SD minus uracil medium and cells were grown at about 30° C. and shaken at about 250 rpm for about 24 hours. Cells were harvested by centrifugation at 1000×g for about 5 minutes, after which protein crude extract was prepared with Y-PER Plus (Thermo Scientific) according to the manufacturer's instructions. Whole cell extract protein concentrations were determined using the Coomassie Plus Protein Assay (Thermo Scientific) according to the manufacturer's directions. For each edd and eda variant His-tagged construct, about 10 μg of soluble and insoluble fractions were loaded on 4-12% NuPAGE Novex Bis-Tris protein gels (Invitrogen) and proteins were analyzed by western using anti-(His)6 (SEQ ID NO: 138) mouse monoclonal antibody (Abcam) and HRP-conjugated secondary antibody (Abcam). […]
# [7] = EDA activity assay: S. cerevisiae EDA extracts with saturating E. coli EDD extract (LDH coupled, NADH); format: biochemical
# Method: EDA genes isolated from a variety of sources were expressed in yeast and evaluated independently of EDA activity, to identify EDA activities suitable of inclusion in an engineered yeast strain. […] The activity of integrated EDAs in Thermosacc-Gold haploids, were also evaluated in this manner.
# EDD extractions (adapted from Chemyan et al, Protein Science 16:2368-2377, 2007): • 1) Pellet cells in 50 ml conical tubes, 4° C., 3,000 rpm, 10 mins, discard supernatant. • 2) Resuspend in 2 ml degassed PDGH buffer (20 mM MES pH 6.5, 30 mM NaCl, 5 mM MnCl2, 0.5 mM FeCl2, 10 mM 2-mercaptoethanol, 10 mM cysteine, sparged with nitrogen gas). Move to hungate tube. • 3) Add 0.1% Triton X-100, 10 ng/ml DNase, 10 μg/ml PMSF, 10 μg/ml TAME (Na-(p-toluene sulfonyl)-L-arginine methyl ester), 100 μg/ml lysozyme. • 4) Sparge hungate tube with nitrogen gas, cap and seal. Incubate 2 hours at 37° C., swirl occasionally. • 5) Clarify by centrifugation in 2-ml tube, 4° C., 10 mins, 14,000 rpm. Keep supernatant. • 6) Treat with 150 mM pyruvate and 10 mM sodium cyanoborohydride (work in hood) to inactivate aldolase activity. Incubate 30 mins at room temperature. • 7) During incubation, pre-equilibrate PD-10 column from GE • a. Remove top cap, pour off storage buffer. • b. Cut off bottom tip, fit in 50 ml conical with adapter. • c. Pour 5 ml of 20 mM MES buffer, pH 6.5 (total of 5 times). Discard flow-through. • 8) Run sample through column, then add MES buffer to a total of 2.5 ml volume added. Discard flow-through. • 9) Run 3.5 ml 20 mM MES pH 6.5 buffer to elute protein. Discard column in appropriate waste receptacle. • 10) Perform Bradford assay (1:10 or 1:20 dilution).
# • 1) Spin down in 50 ml conicals, 4° C., 3,400 rpm, 5 mins. […]
# Each reaction contains 50 mM Tris-HCl, pH 7, 10 mM MgCl2, 0.15 mM NADH, 15 μg LDH, saturating amounts of EDD determined empirically (usually −100 μg), 1-50 μg EDA (depending on level of activity), and 1 mM 6-phosphogluconate. Reactions are started by the addition of 6-phosphogluconate and monitored for 5 mins at 30° C.
Molecule,Active? (yes/no) [1],Specific Activity [2],cell density (FIG. 12) ([3]; YP plus xylose),ethanol production (FIG. 12) ([3]; xylose as a carbon source),Glucose [4],Ethanol ([4]; listed as XI-R),Xylose ([4]; listed as XI-R),xylose consumption (FIG. 11) [5],"expression and solubility in S. cerevisiae (western, FIGS. 13A and 13B) [6]","EDA activity relative to EDA from P. aeruginosa ([7]; E. coli EDA slope outside the linear range, underestimated)","EDA activity compared (in words) ([7]; EDAs expressed in S. cerevisiae, saturating E. coli EDD extract)"
B1,Yes,0.9605 µmol/min/mg,higher cell density,more ethanol,0 g/L,15.65 g/L and 15.5 g/L,3.14 g/L and 3.85 g/L,more efficient at consuming xylose than the strain carrying the vector control only,,,
B2,,,,,,,,,expressed and soluble,,
B3,,,,,,,,,expressed and soluble,approximately 16 fold,most active

# From patent publication US20120184020A1, “ENGINEERED MICROORGANISMS WITH ENHANCED FERMENTATION ACTIVITY” (Verdezyne, Inc., priority 2009, published 2012)
